125 sequences from the supplement of paper PMC9112550, “Optimization of the antimicrobial peptide Bac7 by deep mutational scanning” (BMC Biology, 2022) can be followed below.

The data set deals with Escherichia coli TOP10. Description: shrunken log2 fold change of peptide-encoding DNA abundance (4.5 h post-induction vs induction); higher = less antimicrobial activity (less host growth inhibition). The conditions noted are these: time post-induction: 4.5 h; library: site-saturation at positions 5, 18, 19, 20.
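Further: peptides expressed intracellularly from a pBAD plasmid library in pooled LB shake-flask culture, induced with 0.3% L-arabinose, DNA abundance read by NGS, three biological replicates, DESeq2 with apeglm shrinkage.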

For the sequence RRIRWRPPRLPRPRPRPLQGPRP, the “shrunken log2 fold change” value was -0.21. With RRIRERPPRLPRPRPRPQNHPRP, the “shrunken log2 fold change” value is -0.519.

On to RRIRIRPPRLPRPRPRPHTKPRP, for which the “shrunken log2 fold change” value was -1.68.

Consider RRIRQRPPRLPRPRPRPVWDPRP, for which the “shrunken log2 fold change” value is -0.104. For RRIRLRPPRLPRPRPRPKGAPRP, the “shrunken log2 fold change” value stood at 0.379.

With RRIRRRPPRLPRPRPRPYITPRP, the “shrunken log2 fold change” value was -0.523. Under RRIRRRPPRLPRPRPRPTPEPRP stands 0.572; under RRIRLRPPRLPRPRPRPPFWPRP, 0.308. Under RRIRIRPPRLPRPRPRPNCKPRP stands -0.658. Next, RRIRVRPPRLPRPRPRPVTCPRP: -0.155; RRIRLRPPRLPRPRPRPGACPRP: 0.264; RRIRNRPPRLPRPRPRPGGKPRP: -0.101.

As to RRIRCRPPRLPRPRPRPNIIPRP, the “shrunken log2 fold change” value was determined as 0.796. Take RRIRVRPPRLPRPRPRPCPLPRP: the “shrunken log2 fold change” value is -0.418. Under RRIRMRPPRLPRPRPRPFEWPRP stands 0.174; under RRIRARPPRLPRPRPRPGHYPRP, 0.186; under RRIRVRPPRLPRPRPRPPFMPRP, 1.97.

RRIRSRPPRLPRPRPRPDSFPRP: the “shrunken log2 fold change” value is -0.0457. With RRIRDRPPRLPRPRPRPQYTPRP, the “shrunken log2 fold change” value is -0.31. Next, RRIRYRPPRLPRPRPRPRWEPRP: -0.0931. Regarding RRIRARPPRLPRPRPRPFLRPRP, the “shrunken log2 fold change” value came to 0.0973.

With RRIRVRPPRLPRPRPRPAWWPRP, the “shrunken log2 fold change” value was 0.156.

Take RRIRLRPPRLPRPRPRPEKQPRP: the “shrunken log2 fold change” value was 0.0884. For RRIRLRPPRLPRPRPRPLISPRP, the “shrunken log2 fold change” value is -0.506. Turning to RRIRMRPPRLPRPRPRPAHTPRP, the “shrunken log2 fold change” value worked out at 0.709. On to RRIRMRPPRLPRPRPRPKTYPRP, for which the “shrunken log2 fold change” value is -0.0099. Regarding RRIRRRPPRLPRPRPRPNERPRP, the “shrunken log2 fold change” value is -0.0664. As for RRIRKRPPRLPRPRPRPTPEPRP, the “shrunken log2 fold change” value is 0.611. As to RRIRHRPPRLPRPRPRPFHAPRP, the “shrunken log2 fold change” value is -0.0061. Under RRIRARPPRLPRPRPRPSRVPRP stands 2.84; under RRIRNRPPRLPRPRPRPRYKPRP, -0.566.

On to RRIRNRPPRLPRPRPRPFNRPRP, for which the “shrunken log2 fold change” value is -0.111. As for RRIRFRPPRLPRPRPRPHSYPRP, the “shrunken log2 fold change” value is -0.0495. Under RRIRERPPRLPRPRPRPPMPPRP stands 0.0249; under RRIRPRPPRLPRPRPRPKGIPRP, -0.0606. For RRIRPRPPRLPRPRPRPFFFPRP, the “shrunken log2 fold change” value turned out to be 0.279. Next, RRIRSRPPRLPRPRPRPDEGPRP: 0.0432; RRIRRRPPRLPRPRPRPGDNPRP: 0.169. In the case of RRIRNRPPRLPRPRPRPQNVPRP, the “shrunken log2 fold change” value was -0.0764. For the sequence RRIRGRPPRLPRPRPRPNKYPRP, the “shrunken log2 fold change” value was -0.0952. Next, RRIRARPPRLPRPRPRPMLFPRP: 0.674.

With RRIRYRPPRLPRPRPRPSYAPRP, the “shrunken log2 fold change” value was -0.149.

Regarding RRIRRRPPRLPRPRPRPRKFPRP, the “shrunken log2 fold change” value came out at 0.491.

As for RRIRRRPPRLPRPRPRPEFMPRP, the “shrunken log2 fold change” value is 0.377.

Turning to RRIRWRPPRLPRPRPRPVTIPRP, the “shrunken log2 fold change” value is -0.269. Next, RRIRARPPRLPRPRPRPPWMPRP: 0.463. Under RRIRGRPPRLPRPRPRPYTIPRP stands 0.187; under RRIRSRPPRLPRPRPRPENWPRP, -0.0386.

Consider RRIRYRPPRLPRPRPRPRNYPRP, for which the “shrunken log2 fold change” value is -1.26. Next, RRIRVRPPRLPRPRPRPTGCPRP: 0.0918. On to RRIRLRPPRLPRPRPRPPTGPRP, for which the “shrunken log2 fold change” value stood at 0.146.

Turning to RRIRRRPPRLPRPRPRPGNRPRP, the “shrunken log2 fold change” value is -0.151. Regarding RRIRGRPPRLPRPRPRPDVCPRP, the “shrunken log2 fold change” value turned out to be 0.181. Next, RRIRKRPPRLPRPRPRPDPSPRP: -0.0338.

On to RRIRCRPPRLPRPRPRPLCWPRP, for which the “shrunken log2 fold change” value was determined as 0.132. Next, RRIRTRPPRLPRPRPRPRTVPRP: 0.00464; RRIRLRPPRLPRPRPRPESQPRP: -0.000253. With RRIRIRPPRLPRPRPRPNEFPRP, the “shrunken log2 fold change” value is -0.295. Next, RRIRVRPPRLPRPRPRPMCNPRP: -0.263; RRIRKRPPRLPRPRPRPMCNPRP: 0.26; RRIRARPPRLPRPRPRPYPYPRP: -0.152. Regarding RRIRQRPPRLPRPRPRPLIEPRP, the “shrunken log2 fold change” value was -0.042. As to RRIRARPPRLPRPRPRPHGTPRP, the “shrunken log2 fold change” value was -0.0246. Under RRIRERPPRLPRPRPRPSNGPRP stands -0.0949; under RRIRHRPPRLPRPRPRPPGSPRP, 0.0725; under RRIRCRPPRLPRPRPRPTYTPRP, -0.793. Next, RRIRHRPPRLPRPRPRPQKPPRP: -0.0624. On to RRIRNRPPRLPRPRPRPRRIPRP, for which the “shrunken log2 fold change” value turned out to be 0.0821. As to RRIRWRPPRLPRPRPRPCDFPRP, the “shrunken log2 fold change” value worked out at 0.123. Regarding RRIRMRPPRLPRPRPRPKWQPRP, the “shrunken log2 fold change” value was -0.0255. With RRIRARPPRLPRPRPRPDKEPRP, the “shrunken log2 fold change” value came to 0.0435. Under RRIRVRPPRLPRPRPRPGLFPRP stands 0.0268. Under RRIRMRPPRLPRPRPRPKTQPRP stands 0.971. Next, RRIRKRPPRLPRPRPRPSNCPRP: -0.309; RRIRFRPPRLPRPRPRPKRHPRP: 0.134; RRIRSRPPRLPRPRPRPLPPPRP: 0.518.

RRIRNRPPRLPRPRPRPKTFPRP: the “shrunken log2 fold change” value was -0.399. Consider RRIRRRPPRLPRPRPRPMSIPRP, for which the “shrunken log2 fold change” value was -0.465. Next, RRIRTRPPRLPRPRPRPYSLPRP: -0.186. With RRIRHRPPRLPRPRPRPKQLPRP, the “shrunken log2 fold change” value was -0.553. Next, RRIRIRPPRLPRPRPRPKKFPRP: -0.666.

In the case of RRIRTRPPRLPRPRPRPLRAPRP, the “shrunken log2 fold change” value is 1.05. Under RRIRKRPPRLPRPRPRPKDVPRP stands -0.018. Under RRIRSRPPRLPRPRPRPGLQPRP stands 0.652; under RRIRCRPPRLPRPRPRPAMNPRP, -0.0385.

Take RRIRERPPRLPRPRPRPLQYPRP: the “shrunken log2 fold change” value was -0.286.

Take RRIRARPPRLPRPRPRPCPNPRP: the “shrunken log2 fold change” value was -0.0809.

For RRIRNRPPRLPRPRPRPMDNPRP, the “shrunken log2 fold change” value was -0.105.

As to RRIRFRPPRLPRPRPRPGEEPRP, the “shrunken log2 fold change” value was found to be 0.0793. For the sequence RRIRLRPPRLPRPRPRPCNQPRP, the “shrunken log2 fold change” value was -1.15.

RRIRSRPPRLPRPRPRPLYRPRP: the “shrunken log2 fold change” value was -0.346. Next, RRIRLRPPRLPRPRPRPYIRPRP: -1.62; RRIRTRPPRLPRPRPRPLLQPRP: 0.173; RRIRLRPPRLPRPRPRPHVDPRP: 0.0142. In the case of RRIRPRPPRLPRPRPRPEEGPRP, the “shrunken log2 fold change” value was -0.0155.

Take RRIRGRPPRLPRPRPRPASYPRP: the “shrunken log2 fold change” value is -0.14.

In the case of RRIRMRPPRLPRPRPRPWEFPRP, the “shrunken log2 fold change” value came out at 0.0443. Next, RRIRERPPRLPRPRPRPCPSPRP: -0.115; RRIRRRPPRLPRPRPRPTLLPRP: 0.465; RRIRCRPPRLPRPRPRPSPPPRP: 0.252. Under RRIRPRPPRLPRPRPRPKRWPRP stands 0.441; under RRIRIRPPRLPRPRPRPKIHPRP, -0.464. As for RRIRHRPPRLPRPRPRPVTGPRP, the “shrunken log2 fold change” value is -0.213.

With RRIRWRPPRLPRPRPRPESAPRP, the “shrunken log2 fold change” value turned out to be 1.15.

As for RRIRNRPPRLPRPRPRPSFMPRP, the “shrunken log2 fold change” value is -1.21. On to RRIRMRPPRLPRPRPRPRHSPRP, for which the “shrunken log2 fold change” value was found to be 0.0596. Under RRIRGRPPRLPRPRPRPYEDPRP stands -0.017; under RRIRVRPPRLPRPRPRPLFCPRP, -0.103; under RRIRYRPPRLPRPRPRPWTRPRP, 0.0101. Next, RRIRGRPPRLPRPRPRPWSMPRP: 0.0583.

On to RRIRLRPPRLPRPRPRPGLKPRP, for which the “shrunken log2 fold change” value came to 0.12. Consider RRIRSRPPRLPRPRPRPLVGPRP, for which the “shrunken log2 fold change” value is 0.0355.

For the sequence RRIRARPPRLPRPRPRPNYTPRP, the “shrunken log2 fold change” value was -0.329. Under RRIRGRPPRLPRPRPRPAVMPRP stands 0.946; under RRIRPRPPRLPRPRPRPMNQPRP, 0.00354. Consider RRIRSRPPRLPRPRPRPMFDPRP, for which the “shrunken log2 fold change” value was -0.0808. Under RRIRGRPPRLPRPRPRPNLAPRP stands 0.961; under RRIRRRPPRLPRPRPRPSYIPRP, -0.416; under RRIRPRPPRLPRPRPRPWNFPRP, -0.205. Regarding RRIRTRPPRLPRPRPRPVDYPRP, the “shrunken log2 fold change” value was -0.172. Next, RRIRWRPPRLPRPRPRPHTDPRP: -0.283; RRIRARPPRLPRPRPRPCGKPRP: 0.659; RRIRFRPPRLPRPRPRPKLGPRP: -0.0528. Turning to RRIRIRPPRLPRPRPRPVDFPRP, the “shrunken log2 fold change” value was -0.133. In the case of RRIRKRPPRLPRPRPRPPPLPRP, the “shrunken log2 fold change” value was 0.661.
